Consider three molecules from article PMC3170884 (Frontiers in Physiology, 2011).

Assay [1] has as its target recombinant human BMP2 derived from E. coli expression (human) (UniProt P12643). Put plainly: SPR. (Surface plasmon resonance follows binding to a sensor surface in real time, without labels.)
The target of assay [2] is recombinant human BMP2 derived from E. coli expression (human, UniProt P12643 283-396). Put plainly: SPR.
recombinant human BMP2 derived from E. coli expression, sequence (P12643 283-396): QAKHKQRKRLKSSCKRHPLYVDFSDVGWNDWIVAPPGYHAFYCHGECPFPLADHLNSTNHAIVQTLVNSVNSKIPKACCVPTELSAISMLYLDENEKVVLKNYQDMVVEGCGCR

recombinant human BMP2 derived from E. coli expression (human), sequence (P12643 283-396): as above

The Kd is the constant that tells how readily two partners part at equilibrium. Usually koff stands for the first-order rate constant of dissociation. The kon is a measure of how fast the partners come together. For “Xenopus Tsg (xTsg) from E. coli, non-glycosylated (natural protein)”, in assay [1], the Kd came to 20.2 nM, the koff worked out at 0.00071 s⁻¹ and the kon is 38000 M⁻¹ s⁻¹.

For the molecule “Xenopus Tsg (xTsg) from insect cells, glycosylated (natural protein)”, in assay [1], the Kd was 2.5 nM, the koff was 0.0002 s⁻¹ and the kon came out at 110000 M⁻¹ s⁻¹.

B1: mouse TWSG1 (mTWSG1) from E. coli, non-glycosylated (natural protein, UniProt Q9EP52 25-222, looked up)
chain: CNKALCASDVSKCLIQELCQCRPGEGNCPCCKECMLCLGALWDECCDCVGMCNPRNYSDTPPTSKSTVEELHEPIPSLFRALTEGDTQLNWNIVSFPVAEELSHHENLVSFLETVNQLHHQNVSVPSNNVHAPFPSDKERMCTVVYFDDCMSIHQCKISCESMGASKYRWFHNACCECIGPECIDYGSKTVKCMNCMF
As to B1, in assay [2], the “KD of the low affinity interaction of the biphasic binding” value was 301 nM and the “KD of the slow (high affinity) interaction of the biphasic binding” value is 39.6 nM.
